Laboratory results from IntAct's records for PubMed 15530371.

Target: T1, cdkn3_human CDKN3 (UniProt Q16667)
T1 sequence: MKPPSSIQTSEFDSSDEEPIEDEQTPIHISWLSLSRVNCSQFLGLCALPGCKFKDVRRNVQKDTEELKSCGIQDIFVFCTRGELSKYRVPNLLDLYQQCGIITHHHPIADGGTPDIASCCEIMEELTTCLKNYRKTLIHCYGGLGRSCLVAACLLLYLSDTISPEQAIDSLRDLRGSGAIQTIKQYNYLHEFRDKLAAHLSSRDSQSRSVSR

effect of a mutation on the interaction: disrupting interaction
Substance: Cyclin-dependent kinase 2 (Homo sapiens) (from UniProt P24941) K237V
